Results from the supplement of paper PMC10567573.

B1: SFRS1 (parent)
chain: RDIDLKNRRGGPPFAFVEFEDPRD

Variants of: B1
Test: protein stability index of a GFP-peptide fusion (GPS, HEK-293T) (PSI 1-6); higher = more stable
Settings: c terminus: a fixed tail appended
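Further: lentivirally expressed fusions sorted by FACS into six bins by GFP to DsRed ratio, PSI derived from sequencing read proportions per bin multiplied by bin number.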

Q: Which protein stability index does the source give for RVIDLKNRRGGPPFAFVEFEDPRD [D2V] here?
A: Its protein stability index is 3.28.

Q: With RDIDLRNRRGGPPFAFVEFEDPRD [K6R] as the variant, how does the protein stability index read?
A: The protein stability index was 3.47.

Q: Which protein stability index does the source give for RDIDLNNRRGGPPFAFVEFEDPRD [K6N] here?
A: The protein stability index was 4.04.

Q: For RDIDLENRRGGPPFAFVEFEDPRD [K6E], which protein stability index is on record?
A: The protein stability index was 4.28.

Q: With RDIDLWNRRGGPPFAFVEFEDPRD [K6W] as the variant, how does the protein stability index read?
A: The protein stability index was 3.79.

Q: For RDIDLSNRRGGPPFAFVEFEDPRD [K6S], which protein stability index is on record?
A: Its protein stability index is 4.35.

Q: For RDIDLMNRRGGPPFAFVEFEDPRD [K6M], which protein stability index is on record?
A: Its protein stability index is 4.07.

Q: With RDIDLTNRRGGPPFAFVEFEDPRD [K6T] as the variant, how does the protein stability index read?
A: Its protein stability index is 4.02.

Q: For RDIDLVNRRGGPPFAFVEFEDPRD [K6V], which protein stability index is on record?
A: Its protein stability index is 4.09.

Q: With RDIDLKNRRGGPPFAFVEFADPRD [E20A] as the variant, how does the protein stability index read?
A: The protein stability index was 3.06.

Q: With RDIDLKNRRGGPPFAFVEFMDPRD [E20M] as the variant, how does the protein stability index read?
A: Its protein stability index is 2.57.

Q: Which protein stability index does the source give for RDIDLKNRRGGPPFAFVEFIDPRD [E20I] here?
A: Its protein stability index is 2.56.

Q: For RDIDLKNRRGGPPFAFVEFLDPRD [E20L], which protein stability index is on record?
A: The protein stability index was 2.71.

Q: For RDIDLKNRRGGPPFAFVEFHDPRD [E20H], which protein stability index is on record?
A: Its protein stability index is 3.21.

Q: For RDIDLKNRRGGPPFAFVEFYDPRD [E20Y], which protein stability index is on record?
A: Its protein stability index is 2.46.

Q: With RDIDGKNRRGGPPFAFVEFEDPRD [L5G] as the variant, how does the protein stability index read?
A: Its protein stability index is 3.74.

Q: For RDIDNKNRRGGPPFAFVEFEDPRD [L5N], which protein stability index is on record?
A: The protein stability index was 3.89.

Q: Which protein stability index does the source give for RDIDQKNRRGGPPFAFVEFEDPRD [L5Q] here?
A: The protein stability index was 4.13.

Q: With RDIDWKNRRGGPPFAFVEFEDPRD [L5W] as the variant, how does the protein stability index read?
A: The protein stability index was 3.41.

Q: With RDIDSKNRRGGPPFAFVEFEDPRD [L5S] as the variant, how does the protein stability index read?
A: The protein stability index was 4.06.

Q: With RDIDPKNRRGGPPFAFVEFEDPRD [L5P] as the variant, how does the protein stability index read?
A: The protein stability index was 3.68.

Q: With RDIDCKNRRGGPPFAFVEFEDPRD [L5C] as the variant, how does the protein stability index read?
A: Its protein stability index is 3.11.

Q: With RDIDTKNRRGGPPFAFVEFEDPRD [L5T] as the variant, how does the protein stability index read?
A: Its protein stability index is 3.72.

Q: Which protein stability index does the source give for RDIDLKNRRGGPPFKFVEFEDPRD [A15K] here?
A: Its protein stability index is 4.56.

Q: With RDIDLKNRRGGPPFSFVEFEDPRD [A15S] as the variant, how does the protein stability index read?
A: Its protein stability index is 4.22.

Q: For RDIDLKNRRGGPPFIFVEFEDPRD [A15I], which protein stability index is on record?
A: Its protein stability index is 3.42.

Q: With RDIDLKNRRGGPPFDFVEFEDPRD [A15D] as the variant, how does the protein stability index read?
A: Its protein stability index is 4.44.

Q: For RDIDLKNRRGGPPFFFVEFEDPRD [A15F], which protein stability index is on record?
A: Its protein stability index is 3.12.

Q: With RDIDLKNRRGGPPFMFVEFEDPRD [A15M] as the variant, how does the protein stability index read?
A: The protein stability index was 3.84.

Q: For RDIDLKNRRGGPPFHFVEFEDPRD [A15H], which protein stability index is on record?
A: The protein stability index was 4.46.

Q: Which protein stability index does the source give for RDIDLKNRRGGPPFGFVEFEDPRD [A15G] here?
A: Its protein stability index is 4.63.

Q: With RDIDLKNRRGGPPFQFVEFEDPRD [A15Q] as the variant, how does the protein stability index read?
A: Its protein stability index is 4.79.

Q: For RDIDLKDRRGGPPFAFVEFEDPRD [N7D], which protein stability index is on record?
A: The protein stability index was 4.54.

Q: Which protein stability index does the source give for RDIDLKPRRGGPPFAFVEFEDPRD [N7P] here?
A: The protein stability index was 3.78.

Q: Which protein stability index does the source give for RDIDLKRRRGGPPFAFVEFEDPRD [N7R] here?
A: Its protein stability index is 3.1.

Q: For RDIDLKCRRGGPPFAFVEFEDPRD [N7C], which protein stability index is on record?
A: The protein stability index was 3.56.

Q: Which protein stability index does the source give for RDIDLKYRRGGPPFAFVEFEDPRD [N7Y] here?
A: Its protein stability index is 3.02.

Q: With RDIDLKVRRGGPPFAFVEFEDPRD [N7V] as the variant, how does the protein stability index read?
A: The protein stability index was 3.39.

Q: Which protein stability index does the source give for RDIDLKNRRGGPCFAFVEFEDPRD [P13C] here?
A: Its protein stability index is 4.51.

Q: For RDIDLKNRRGGPMFAFVEFEDPRD [P13M], which protein stability index is on record?
A: The protein stability index was 4.02.

Q: For RDIDLKNRRGGPFFAFVEFEDPRD [P13F], which protein stability index is on record?
A: Its protein stability index is 3.42.

Q: With RDIDLKNRRGGPLFAFVEFEDPRD [P13L] as the variant, how does the protein stability index read?
A: Its protein stability index is 3.28.

Q: For RDIDLKNRRGGPGFAFVEFEDPRD [P13G], which protein stability index is on record?
A: Its protein stability index is 3.86.

Q: With RDIDLKNRRGGPYFAFVEFEDPRD [P13Y] as the variant, how does the protein stability index read?
A: Its protein stability index is 4.

Q: Which protein stability index does the source give for RDIDLKNRRGGPSFAFVEFEDPRD [P13S] here?
A: Its protein stability index is 4.57.

Q: Which protein stability index does the source give for RDIDLKNRRGGPQFAFVEFEDPRD [P13Q] here?
A: The protein stability index was 4.79.

Q: With RDIDLKNRRGGPWFAFVEFEDPRD [P13W] as the variant, how does the protein stability index read?
A: The protein stability index was 3.39.

Q: Which protein stability index does the source give for RDIDLKNRRGGPNFAFVEFEDPRD [P13N] here?
A: Its protein stability index is 4.59.

Q: For RDIDLKNRRGGPDFAFVEFEDPRD [P13D], which protein stability index is on record?
A: The protein stability index was 4.58.

Q: Which protein stability index does the source give for RDIDLKNRRGGPVFAFVEFEDPRD [P13V] here?
A: Its protein stability index is 3.37.

Q: For RDIDLKNRRNGPPFAFVEFEDPRD [G10N], which protein stability index is on record?
A: The protein stability index was 3.63.

Q: Which protein stability index does the source give for RDIDLKNRRFGPPFAFVEFEDPRD [G10F] here?
A: The protein stability index was 3.9.

Q: For RDIDLKNRRVGPPFAFVEFEDPRD [G10V], which protein stability index is on record?
A: Its protein stability index is 3.71.

Q: Which protein stability index does the source give for RDIDLKNRRIGPPFAFVEFEDPRD [G10I] here?
A: The protein stability index was 3.41.

Q: With RDIDLKNRRRGPPFAFVEFEDPRD [G10R] as the variant, how does the protein stability index read?
A: The protein stability index was 2.96.

Q: With RDIDLKNRRYGPPFAFVEFEDPRD [G10Y] as the variant, how does the protein stability index read?
A: Its protein stability index is 3.19.

Q: Which protein stability index does the source give for RDIDLKNRRMGPPFAFVEFEDPRD [G10M] here?
A: The protein stability index was 3.51.

Q: For RDIDLKNRRSGPPFAFVEFEDPRD [G10S], which protein stability index is on record?
A: The protein stability index was 4.21.

Q: For RDIDLKNRRGGPPFAFQEFEDPRD [V17Q], which protein stability index is on record?
A: The protein stability index was 4.61.

Q: For RDIDLKNRRGGPPFAFWEFEDPRD [V17W], which protein stability index is on record?
A: Its protein stability index is 3.92.

Q: Which protein stability index does the source give for RDIDLKNRRGGPPFAFKEFEDPRD [V17K] here?
A: The protein stability index was 4.62.

Q: For RDIDLKNRRGGPPFAFTEFEDPRD [V17T], which protein stability index is on record?
A: Its protein stability index is 4.75.

Q: Which protein stability index does the source give for RDIDLKNRRGGPPFAFSEFEDPRD [V17S] here?
A: The protein stability index was 4.16.

Q: For RDIDLKNRRGGPPFAFCEFEDPRD [V17C], which protein stability index is on record?
A: The protein stability index was 4.2.

Q: With RDIDLKNRRGGPPFAFHEFEDPRD [V17H] as the variant, how does the protein stability index read?
A: Its protein stability index is 4.38.

Q: Which protein stability index does the source give for RDIDLKNRRGGPPFAFNEFEDPRD [V17N] here?
A: Its protein stability index is 4.62.

Q: Which protein stability index does the source give for RDIDLKNRRGGPPFAFFEFEDPRD [V17F] here?
A: The protein stability index was 4.64.

Q: For RDIDLKNRRGGPPFAFMEFEDPRD [V17M], which protein stability index is on record?
A: The protein stability index was 4.24.

Q: Which protein stability index does the source give for RDIDLKNRRGGPPFAFVEFEDPSD [R23S] here?
A: Its protein stability index is 4.07.

Q: For RDIDLKNRRGGPPFAFVEFEDPED [R23E], which protein stability index is on record?
A: The protein stability index was 4.1.

Q: For RDIDLKNRRGGPPFAFVEFEDPKD [R23K], which protein stability index is on record?
A: The protein stability index was 4.14.

Q: Which protein stability index does the source give for RDIDLKNRRGGPPFAFVEFEDPPD [R23P] here?
A: Its protein stability index is 4.53.

Q: With RDIDLKNRRGGPPFAFVEFEDPDD [R23D] as the variant, how does the protein stability index read?
A: The protein stability index was 4.18.

Q: With RDIDLKNRRGGPPFAFVEFEDPTD [R23T] as the variant, how does the protein stability index read?
A: The protein stability index was 4.33.

Q: With RDIDLKNRRGGPPFAFVEFEVPRD [D21V] as the variant, how does the protein stability index read?
A: Its protein stability index is 3.02.

Q: Which protein stability index does the source give for RDIDLKNRRGGPPFAFVEFEEPRD [D21E] here?
A: Its protein stability index is 3.99.

Q: With RDIDLKNRRGGPPFAFVEFEMPRD [D21M] as the variant, how does the protein stability index read?
A: Its protein stability index is 2.8.

Q: For RDIDLKNRRGGPPFAFVEFEPPRD [D21P], which protein stability index is on record?
A: Its protein stability index is 3.45.

Q: With RDIDLKNRRGGPPFAFVEFESPRD [D21S] as the variant, how does the protein stability index read?
A: Its protein stability index is 3.26.

Q: For RDIDLKNRRGGPPFAFVEFEIPRD [D21I], which protein stability index is on record?
A: Its protein stability index is 2.63.

Q: With RDIDLKNRRGGPPFAFVEFEKPRD [D21K] as the variant, how does the protein stability index read?
A: Its protein stability index is 3.73.

Q: For RDIDLKNRRGGPPFAFVEFERPRD [D21R], which protein stability index is on record?
A: Its protein stability index is 3.08.

Q: Which protein stability index does the source give for RDIDLKNRRGGPPFAFVEFEYPRD [D21Y] here?
A: Its protein stability index is 3.18.

Q: Which protein stability index does the source give for RDIDLKNRRGGPPFAFVEFEHPRD [D21H] here?
A: The protein stability index was 3.34.

Q: With RDIDLKNARGGPPFAFVEFEDPRD [R8A] as the variant, how does the protein stability index read?
A: The protein stability index was 4.06.

Q: With RDIDLKNYRGGPPFAFVEFEDPRD [R8Y] as the variant, how does the protein stability index read?
A: The protein stability index was 3.96.

Q: With RDIDLKNDRGGPPFAFVEFEDPRD [R8D] as the variant, how does the protein stability index read?
A: The protein stability index was 4.42.

Q: For RDIDLKNPRGGPPFAFVEFEDPRD [R8P], which protein stability index is on record?
A: Its protein stability index is 4.19.

Q: For RDIDLKNERGGPPFAFVEFEDPRD [R8E], which protein stability index is on record?
A: Its protein stability index is 4.73.

Q: Which protein stability index does the source give for RDIDLKNIRGGPPFAFVEFEDPRD [R8I] here?
A: Its protein stability index is 4.08.

Q: For RDIDLKNKRGGPPFAFVEFEDPRD [R8K], which protein stability index is on record?
A: Its protein stability index is 4.13.

Q: With RDIDLKNTRGGPPFAFVEFEDPRD [R8T] as the variant, how does the protein stability index read?
A: The protein stability index was 4.33.

Q: For RDIDLKNGRGGPPFAFVEFEDPRD [R8G], which protein stability index is on record?
A: Its protein stability index is 4.46.

Q: Which protein stability index does the source give for RDIDLKNQRGGPPFAFVEFEDPRD [R8Q] here?
A: The protein stability index was 4.18.
